In FireProtDB:
Several values for one entry are separate records, joined by “and”; a condition that tells them apart may be missing. Equal entries are not always repeated.

Settings: Aspergillus oryzae (strain ATCC 42149 / RIB 40), whole UniProt chain shown
[1] = pH 1, Thermal, NMR, HCl, KCl 0.15 M, reversible: yes
[2] = pH 1.2, 25 °C, Thermal, Absorbance, glycine-HCl 30 mM, NaCl 0.10 M
[3] = pH 1.6, Thermal, CD, HCl, reversible: yes
[4] = pH 2, 15 °C, GdnHCl, CD, HCl, reversible: yes
[5] = pH 2.08, Thermal, CD, HCl, reversible: yes
[6] = pH 2.2, Thermal, Absorbance, glycine 50 mM
[7] = pH 2.2, Thermal, CD, glycine 50 mM
[8] = pH 2.2, Thermal, Fluorescence, glycine 50 mM
[9] = pH 2.5, Thermal, DSC, glycine 50 mM, NaCl 200 mM, reversible: yes
[10] = pH 4.5, Thermal, DSC, Potassium acetate 50 mM, reversible: no
[11] = pH 4.6, 25 °C, GdnHCl, Absorbance, Sodium acetate 100 mM, reversible: yes
[12] = pH 4.6, 30 °C, GdnHCl, Absorbance, Sodium acetate 100 mM, reversible: yes
[13] = pH 4.6, 35 °C, GdnHCl, Absorbance, Sodium acetate 100 mM, reversible: yes
[14] = pH 4.6, Thermal, Absorbance, Sodium acetate 50 mM
[15] = pH 5, 10 °C, GdnHCl, Fluorescence, Sodium acetate 50 mM
[16] = pH 5, Thermal, Absorbance, Sodium acetate 50 mM, reversible: Yes
[17] = pH 5, Thermal, Absorbance, Sodium acetate 0.10 M, NaCl 0.10 M, reversible: yes
[18] = pH 5, Thermal, Absorbance, sodium acetate 5-20 mM, reversible: yes
[19] = pH 5, Thermal, CD, sodium acetate 5-20 mM, reversible: yes
[20] = pH 5, Thermal, DSC, acetate 50 mM, reversible: no
[21] = pH 5, Thermal, Fluorescence, Sodium acetate 0.05 M, reversible: yes
[22] = pH 5.5, Thermal, Absorbance, MES 50 mM, reversible: yes
[23] = pH 5.5, Thermal, DSC, Potassium acetate 15 mM
[24] = pH 5.5, Thermal, DSC, Potassium acetate 50 mM, reversible: yes
[25] = pH 5.5, Thermal, DSC, acetate 30 mM
[26] = pH 5.5, Thermal, DSC, sodium acetate 10 mM, KCl 100 mM, reversible: yes
[27] = pH 6, Thermal, Absorbance, MES 0.05 M, reversible: no
[28] = pH 6, Thermal, CD, MES 10 mM, KCl 0.1 M
[29] = pH 6, Thermal, DSC, Sodium phosphate 50 mM, NaCl 200 mM, reversible: yes
[30] = pH 6.35, 25 °C, Urea, Absorbance, Glycinamide 0.1 M
[31] = pH 6.8, Thermal, DSC, phosphate 10 mM, reversible: no
[32] = pH 7, 20 °C, GdnHCl, CD, Mops 50 mM
[33] = pH 7, 20 °C, GdnHCl, Fluorescence, Mops 50 mM
[34] = pH 7, 20 °C, GdnHCl, SAXS, Mops 50 mM
[35] = pH 7, Thermal, Absorbance, phosphate 0.03 M
[36] = pH 7, Thermal, CD, MOPS 20 mM, reversible: Yes (>90%)
[37] = pH 7, Thermal, CD, Sodium cacodylate 50 mM, reversible: yes
[38] = pH 7, Thermal, DSC, MES 30 mM, reversible: yes
[39] = pH 7, Thermal, DSC, bis-Tris-HCl 50 mM, reversible: yes
[40] = pH 7, Thermal, Fluorescence, MOPS 30 mM, NaCl 0.1 M, reversible: yes
[41] = pH 7, Thermal, Fluorescence, MOPS 30 mM
[42] = pH 7.05, 25 °C, Urea, Absorbance, Glycinamide 0.1 M
[43] = pH 7.1, Thermal, Absorbance, None, reversible: Yes (>90%)
[44] = pH 7.1, Thermal, CD, None, reversible: Yes (>90%)
[45] = pH 8, 25 °C, GdnHCl, CD, Sodium phosphate 50 mM, NaCl 25 mM, reversible: Yes

B1: Guanyl-specific ribonuclease T1 wild type, P00651 (protein)
chain: MMYSKLLTLTTLLLPTALALPSLVERACDYTCGSNCYSSSDVSTAQAAGYQLHEDGETVGSNSYPHKYNNYEGFDFSVSSPYYEWPILSSGDVYSGGSPGADRVVFNENNQLAGVITHTGASGNNFVECT
Tm [1]: 42.4 °C
heat capacity change of unfolding [1]: 1.79 kcal/mol/K
unfolding enthalpy (van 't Hoff) [1]: 43.2 kcal/mol
heat capacity change of unfolding [2]: 1.47 kcal/mol/K
unfolding enthalpy (van 't Hoff) [2]: 54.8 kcal/mol
unfolding free energy [2]: 1 kcal/mol
Tm [3]: 23 °C
unfolding free energy [3]: 1.72 kcal/mol
Tm (pH 1.9, Thermal, CD, HCl, reversible: yes): 25.8 °C
denaturant midpoint (higher = more stable) [4]: 1.86 M
unfolding free energy [4]: 3.68 kcal/mol
Tm [5]: 28.7 °C
unfolding free energy [5]: 3.16 kcal/mol
Tm [6]: 8.3 °C
unfolding enthalpy (van 't Hoff) [6]: 49 kcal/mol
Tm [7]: 20.2 °C
unfolding enthalpy (van 't Hoff) [7]: 20 kcal/mol
Tm [8]: 9.3 °C
unfolding enthalpy (van 't Hoff) [8]: 24 kcal/mol
Tm [9]: 40 °C
heat capacity change of unfolding [9]: 1.15 kcal/mol/K
unfolding enthalpy (calorimetric) [9]: 85 kcal/mol
Tm (pH 4.4, Thermal, NMR, Unknown): 52.3 °C
unfolding enthalpy (van 't Hoff) (pH 4.4, Thermal, NMR, Unknown): 127 kcal/mol
Tm [10]: 57 °C
unfolding enthalpy (calorimetric) [10]: 106 kcal/mol
denaturant m value [11]: 2.56 kcal/mol/M
denaturant midpoint (higher = more stable) [11]: 2.82 M
unfolding free energy [11]: 7.22 kcal/mol
denaturant m value [12]: 2.65 kcal/mol/M
denaturant midpoint (higher = more stable) [12]: 2.56 M
unfolding free energy [12]: 6.59 kcal/mol
denaturant m value [13]: 2.48 kcal/mol/M
denaturant midpoint (higher = more stable) [13]: 2.25 M
unfolding free energy [13]: 5.6 kcal/mol
Tm [14]: 56.2 °C
unfolding enthalpy (van 't Hoff) [14]: 107 kcal/mol
denaturant m value [15]: 1.84 kcal/mol/M
denaturant midpoint (higher = more stable) [15]: 5.18 M
unfolding free energy [15]: 9.54 kcal/mol
unfolding free energy (pH 5, 25 °C, GdnHCl, CD, Sodium acetate-Acetic acid 0.1 M, reversible: yes): 10.5 kcal/mol
unfolding free energy (pH 5, 25 °C, GdnHCl, DSC, Sodium acetate-Acetic acid 0.1 M, reversible: yes): 11 kcal/mol
unfolding free energy (pH 5, 40 °C, Thermal, Absorbance, Sodium acetate 50 mM, reversible: Yes): 5.06 kcal/mol
Tm [16]: 58 °C
unfolding enthalpy (van 't Hoff) [16]: 104 kcal/mol
Tm (pH 5, Thermal, Absorbance, Sodium acetate 50 mM, reversible: yes): 44.4 °C
Tm [17]: 63.3 °C
unfolding enthalpy (van 't Hoff) [17]: 118 kcal/mol
Tm (pH 5, Thermal, Absorbance, sodium acetate 50 mM, reversible: yes): 61.5 °C
Tm [18]: 58.2 °C
unfolding enthalpy (van 't Hoff) [18]: 102 kcal/mol
Tm (pH 5, Thermal, CD, sodium acetate 50 mM): 53.7 °C
Tm [19]: 64.3 °C
unfolding enthalpy (van 't Hoff) [19]: 90.8 kcal/mol
Tm [20]: 58.9 °C
unfolding enthalpy (calorimetric) [20]: 89.6 kcal/mol
Tm (pH 5, Thermal, Fluorescence, Sodium acetate 0.01 M, reversible: yes (>98%)): 58.8 °C
Tm [21]: 56.7 °C
unfolding enthalpy (van 't Hoff) [21]: 117 kcal/mol
Tm (pH 5, Thermal, Fluorescence, Sodium formate 0.1 M, NaCl 0.25 M, reversible: yes): 59.3 °C
Tm [22]: 58 °C
unfolding enthalpy (van 't Hoff) [22]: 103 kcal/mol
Tm [23]: 62 °C
unfolding enthalpy (calorimetric) [23]: 109 kcal/mol
unfolding enthalpy (van 't Hoff) [23]: 110 kcal/mol
Tm [24]: 60.9 °C
heat capacity change of unfolding [24]: 1 kcal/mol/K
unfolding enthalpy (calorimetric) [24]: 99.1 kcal/mol
Tm [25]: 64 °C
heat capacity change of unfolding [25]: 1.24 kcal/mol/K
unfolding enthalpy (calorimetric) [25]: 116 kcal/mol
Tm [26]: 60.7 °C
unfolding enthalpy (calorimetric) [26]: 107 kcal/mol
unfolding free energy (pH 6, 25 °C, Thermal, CD, MES 10 mM, KCL 0.1 M): 9.3 kcal/mol
Tm [27]: 51.9 °C
unfolding enthalpy (van 't Hoff) [27]: 97.5 kcal/mol
Tm (pH 6, Thermal, Absorbance, Sodium acetate 30 mM, NaCl 0.10 M, reversible: yes): 61.6 °C
Tm [28]: 59.6 °C
unfolding enthalpy (van 't Hoff) [28]: 112 kcal/mol
Tm [29]: 63.7 °C
heat capacity change of unfolding [29]: 1.3 kcal/mol/K
unfolding enthalpy (calorimetric) [29]: 114 kcal/mol
Tm (pH 6, Thermal, DSC, citrate 20 mM, NaCl 55 mM, reversible: yes): 65 °C
Tm (pH 6, Thermal, DSC, phosphate, reversible: yes(>90%)): 63.2 °C
denaturant m value [30]: 1.49 kcal/mol/M
denaturant midpoint (higher = more stable) [30]: 7.16 M
unfolding free energy (pH 6.45, 26 °C, GdnHCl, CD, Sodium phosphate 10 mM, KCl 0.1 M, reversible: yes): 14.4 kcal/mol
Tm [31]: 63.8 °C
unfolding enthalpy (calorimetric) [31]: 114 kcal/mol
unfolding free energy (pH 7, 0 °C, Urea, Fluorescence, MOPS 30 mM, NaCl 0.1 M, reversible: yes): 1.31 kcal/mol
unfolding free energy (pH 7, 2 °C, Urea, Fluorescence, MOPS 30 mM, NaCl 0.1 M, reversible: yes): 1.2 kcal/mol
unfolding free energy (pH 7, 5 °C, Urea, Fluorescence, MOPS 30 mM, NaCl 0.1 M, reversible: yes): 0.85 kcal/mol
denaturant m value [32]: 2.3 kcal/mol/M
denaturant midpoint (higher = more stable) [32]: 2.6 M
denaturant m value [33]: 1.9 kcal/mol/M and 1.8 kcal/mol/M
denaturant midpoint (higher = more stable) [33]: 2.6 M and 2.3 M
denaturant m value [34]: 1.9 kcal/mol/M
denaturant midpoint (higher = more stable) [34]: 2.5 M
unfolding free energy (pH 7, 25 °C, Urea, Fluorescence, MOPS 30 mM, reversible: yes): 5.5 kcal/mol
unfolding enthalpy (van 't Hoff) [35]: 115 kcal/mol and 112 kcal/mol and 104 kcal/mol
unfolding free energy [35]: 8.8 kcal/mol and 8 kcal/mol
Tm [36]: 61.7 °C
unfolding enthalpy (van 't Hoff) [36]: 112 kcal/mol
Tm [37]: 52.5 °C
unfolding enthalpy (van 't Hoff) [37]: 97.7 kcal/mol
Tm [38]: 53.3 °C
heat capacity change of unfolding [38]: 1.6 kcal/mol/K
unfolding enthalpy (calorimetric) [38]: 84.7 kcal/mol
Tm (pH 7, Thermal, DSC, Potassium phosphate 0.1 M): 44.4 °C
Tm [39]: 65.6 °C
unfolding enthalpy (calorimetric) [39]: 110 kcal/mol
Tm [40]: 12.4 °C
heat capacity change of unfolding [40]: 1.59 kcal/mol/K
unfolding enthalpy (van 't Hoff) [40]: 39.9 kcal/mol
Tm [41]: 48.3 °C
unfolding enthalpy (van 't Hoff) [41]: 96 kcal/mol
denaturant m value [42]: 1.45 kcal/mol/M
denaturant midpoint (higher = more stable) [42]: 7.59 M
unfolding free energy [42]: 10.9 kcal/mol and 3.97 kcal/mol
Tm [43]: 62.8 °C
unfolding enthalpy (van 't Hoff) [43]: 66 kcal/mol
Tm [44]: 61.4 °C
unfolding enthalpy (van 't Hoff) [44]: 122 kcal/mol
Tm (pH 7.4, Thermal, CD, PBS): 61.1 °C
unfolding enthalpy (van 't Hoff) (pH 7.4, Thermal, CD, PBS): 105 kcal/mol
unfolding free energy (pH 8, 15 °C, Urea, CD, Tris-HCl 0.1 M, NaCl 2.5 M): 2.61 kcal/mol
denaturant m value [45]: 1.99 kcal/mol/M
denaturant midpoint (higher = more stable) [45]: 3.1 M
Tm (pH 8, Thermal, CD, Sodium phosphate 50 mM, NaCl 25 mM, reversible: Yes): 65.6 °C
denaturant midpoint (higher = more stable) (pH 8.4, 23 °C, GdnHCl, Fluorescence, Tris-HCl 0.1 M): 2.25 M
denaturant midpoint (higher = more stable) (pH 8.4, 23 °C, GdnSCN, Fluorescence, Tris-HCl 0.1 M): 0.75 M
